Test results reported in publication PMC5935710, “Structure and mechanism of the two-component α-helical pore-forming toxin YaxAB” (Nature Communications, 2018).

Experiments:
[1] = target: the molecule itself; assay: cryo-EM structure; 1 mg each of YaxA and YaxB mixed at room temperature, Cymal-6 treated, Superose 6, exchanged into amphipol A8-35; 2 mg/mL; C10 symmetry imposed, 6.1 Å; a C9 class at 7.6 Å
[2] = target: T1, YaxA (Y. enterocolitica, UniProt A1JM51 1-411); assay: SEC; purified YaxA and YaxB mixed in solution; ratio of the two in the complex from SDS-PAGE band intensities; conditions: both partners purified
T1 construct: YaxA of Yersinia enterocolitica serovar 8, biovar 1 (ATCC 23715), ORF YE1984; 45.9 kDa; native mass spectrometry verified that the full-length protein was purified; the ORF was amplified from cDNA of ATCC 23715; The pore model 6EL1 holds YaxA residues 45-153 and 169-410; also called YaxA^WT; WT YaxA; not shown: His6, N-terminal, cleaved; SUMO, N-terminal, cleaved
T1 sequence: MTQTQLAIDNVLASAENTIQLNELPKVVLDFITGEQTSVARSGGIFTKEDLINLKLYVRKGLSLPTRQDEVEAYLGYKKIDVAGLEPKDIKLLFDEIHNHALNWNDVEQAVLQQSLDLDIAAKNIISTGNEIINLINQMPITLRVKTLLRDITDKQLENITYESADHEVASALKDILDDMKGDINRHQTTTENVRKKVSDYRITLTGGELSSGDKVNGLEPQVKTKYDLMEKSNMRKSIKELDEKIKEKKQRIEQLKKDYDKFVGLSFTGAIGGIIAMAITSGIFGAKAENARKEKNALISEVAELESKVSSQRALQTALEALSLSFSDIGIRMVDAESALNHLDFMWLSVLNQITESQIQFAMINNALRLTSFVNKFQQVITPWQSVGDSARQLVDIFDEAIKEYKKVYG

[3] = target: T1, YaxA; assay: negative-stain EM; YaxA, then YaxB (1.5-fold molar excess) on human erythrocyte ghosts; pores extracted with 1.5% Cymal-6, purified on Superose 6 and a 10-40% sucrose gradient; 0.1 mg/mL on grids, uranyl formate stain; conditions: both partners purified

B1: YaxB (natural protein)
chain: MAEISTFPHSGLSYPDINFKIFSQGVKNISHLAQFKTTGVEVLQEKALRVSLYSQRLDVIVRESLSSLQVKLENTLALTYFTTLEEIDEALISQDIDEESKSEMRKERINIIKNLSNDITQLKQLFIEKTELLDKSSSDLHNVVIIEGTDKVLQAEQLRQKQLTEDIATKELERKEIEKKRDKIIEALDVIREHNLVDAFKDLIPTGENLSELDLAKPEIELLKQSLEITKKLLGQFSEGLKYIDLTDARKKLDNQIDTASTRLTELNRQLEQSEKLIAGVNAVIKIDQEKSAVVVEAEKLSRAWHIFIHEITALQGTSLNEVELSKPLIKQQIYLESLIKQLI
notes: YaxB of Yersinia enterocolitica serovar 8, biovar 1 (ATCC 23715), ORF YE1985; 39.3 kDa; the ORF was cloned behind His6 and a TEV site; the ORF was amplified from cDNA of ATCC 23715; The pore model 6EL1 holds YaxB residues 12-343; also called YE1985; not shown: His6, N-terminal, cleaved
For B1, the “stoichiometry N” value [1] was 10, the “stoichiometry N” value [2] was 1 YaxA:YaxB and the “radial spokes (YaxA–YaxB dimers) per complex” value [3] was 11 fold symmetry.
